Test results: PMC1361615 (Nucleic Acids Research, 2006)

Target: the molecule itself
Test: SEC

B1: His-tagged RsrI N6-adenine DNA methyltransferase (M.RsrI), wild type (enzyme, UniProt P14751 1-319, looked up)
chain: MANRSHHNAGHRAMNALRKSGQKHSSESQLGSSEIGTTRHVYDVCDCLDTLAKLPDDSVQLIICDPPYNIMLADWDDHMDYIGWAKRWLAEAERVLSPTGSIAIFGGLQYQGEAGSGDLISIISHMRQNSKMLLANLIIWNYPNGMSAQRFFANRHEEIAWFAKTKKYFFDLDAVREPYDEETKAAYMKDKRLNPESVEKGRNPTNVWRMSRLNGNSLERVGHPTQKPAAVIERLVRALSHPGSTVLDFFAGSGVTARVAIQEGRNSICTDAAPVFKEYYQKQLTFLQDDGLIDKARSYEIVEGAANFGAALQRGDVAS
With B1 the “stoichiometry N” value was 2.
